The text below walks through data of patent US20260209293A1 (Novo Nordisk, published 2026).

The chains are these.
T1: human amylin-3(a) receptor (human, UniProt P30988 25-474; O60896 24-148)
T1 sequence (looked up) 1: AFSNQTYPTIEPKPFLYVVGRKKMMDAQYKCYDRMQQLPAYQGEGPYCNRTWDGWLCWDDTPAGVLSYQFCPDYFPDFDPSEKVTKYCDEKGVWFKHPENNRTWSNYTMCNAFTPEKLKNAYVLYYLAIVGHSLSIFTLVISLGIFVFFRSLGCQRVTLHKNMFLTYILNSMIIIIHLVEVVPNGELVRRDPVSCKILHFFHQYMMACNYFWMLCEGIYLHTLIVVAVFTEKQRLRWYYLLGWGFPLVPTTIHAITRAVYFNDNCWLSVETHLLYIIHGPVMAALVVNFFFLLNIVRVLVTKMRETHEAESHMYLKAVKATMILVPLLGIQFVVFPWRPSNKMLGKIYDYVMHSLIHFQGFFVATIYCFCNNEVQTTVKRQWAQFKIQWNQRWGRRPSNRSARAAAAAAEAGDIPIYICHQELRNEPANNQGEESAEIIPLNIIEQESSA
T1 sequence (looked up) 2: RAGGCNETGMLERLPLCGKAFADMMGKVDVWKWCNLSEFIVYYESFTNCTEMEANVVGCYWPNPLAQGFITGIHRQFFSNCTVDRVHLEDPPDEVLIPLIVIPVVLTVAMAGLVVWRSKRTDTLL

T2: human calcitonin receptor (a) (human, UniProt P30988 25-474)
T2 sequence (looked up): T1 sequence (looked up) 1

B1: N^1-[(4S)-4-carboxy-4-(15-carboxypentadecanoylamino)butanoyl]-[Ala1,Ser2,His3,Leu4,Ser5,Ala7,Gln8,Ala10,Glu14,His17,Asp21,Pro25,Pro28,Pro29,Asp31,Pro37]-human … (peptide)
peptide: {C16 diacid-γGlu}-ASHLSTAQTARLAEFLHHSSDNFGPILPPTDVGSNTP-NH2
SMILES: CC[C@H](C)[C@H](NC(=O)[C@@H]1CCCN1C(=O)CNC(=O)[C@H](Cc1ccccc1)NC(=O)[C@H](CC(N)=O)NC(=O)[C@H](CC(=O)O)NC(=O)[C@H](CO)NC(=O)[C@H](CO)NC(=O)[C@H](Cc1c[nH]cn1)NC(=O)[C@H](Cc1c[nH]cn1)NC(=O)[C@H](CC(C)C)NC(=O)[C@H](Cc1ccccc1)NC(=O)[C@H](CCC(=O)O)NC(=O)[C@H](C)NC(=O)[C@H](CC(C)C)NC(=O)[C@H](CCCNC(=N)N)NC(=O)[C@H](C)NC(=O)[C@@H](NC(=O)[C@H](CCC(N)=O)NC(=O)[C@H](C)NC(=O)[C@@H](NC(=O)[C@H](CO)NC(=O)[C@H](CC(C)C)NC(=O)[C@H](Cc1c[nH]cn1)NC(=O)[C@H](CO)NC(=O)[C@H](C)NC(=O)CC[C@H](NC(=O)CCCCCCCCCCCCCCC(=O)O)C(=O)O)[C@@H](C)O)[C@@H](C)O)C(=O)N[C@@H](CC(C)C)C(=O)N1CCC[C@H]1C(=O)N1CCC[C@H]1C(=O)N[C@H](C(=O)N[C@@H](CC(=O)O)C(=O)N[C@H](C(=O)NCC(=O)N[C@@H](CO)C(=O)N[C@@H](CC(N)=O)C(=O)N[C@H](C(=O)N1CCC[C@H]1C(N)=O)[C@@H](C)O)C(C)C)[C@@H](C)O
B2: N^1-[(4S)-4-carboxy-4-(19-carboxynonadecanoylamino)butanoyl]-[Ala1,Ser2,His3,Leu4,Ser5,Ala7,Gln8,Glu14,His17,Asp21,Pro25,Pro28,Pro29,Asp31,Pro37]-human amylin (peptide)
peptide: {C20 diacid-γGlu}-ASHLSTAQTQRLAEFLHHSSDNFGPILPPTDVGSNTP-NH2
SMILES: CC[C@H](C)[C@H](NC(=O)[C@@H]1CCCN1C(=O)CNC(=O)[C@H](Cc1ccccc1)NC(=O)[C@H](CC(N)=O)NC(=O)[C@H](CC(=O)O)NC(=O)[C@H](CO)NC(=O)[C@H](CO)NC(=O)[C@H](Cc1c[nH]cn1)NC(=O)[C@H](Cc1c[nH]cn1)NC(=O)[C@H](CC(C)C)NC(=O)[C@H](Cc1ccccc1)NC(=O)[C@H](CCC(=O)O)NC(=O)[C@H](C)NC(=O)[C@H](CC(C)C)NC(=O)[C@H](CCCNC(=N)N)NC(=O)[C@H](CCC(N)=O)NC(=O)[C@@H](NC(=O)[C@H](CCC(N)=O)NC(=O)[C@H](C)NC(=O)[C@@H](NC(=O)[C@H](CO)NC(=O)[C@H](CC(C)C)NC(=O)[C@H](Cc1c[nH]cn1)NC(=O)[C@H](CO)NC(=O)[C@H](C)NC(=O)CC[C@H](NC(=O)CCCCCCCCCCCCCCCCCCC(=O)O)C(=O)O)[C@@H](C)O)[C@@H](C)O)C(=O)N[C@@H](CC(C)C)C(=O)N1CCC[C@H]1C(=O)N1CCC[C@H]1C(=O)N[C@H](C(=O)N[C@@H](CC(=O)O)C(=O)N[C@H](C(=O)NCC(=O)N[C@@H](CO)C(=O)N[C@@H](CC(N)=O)C(=O)N[C@H](C(=O)N1CCC[C@H]1C(N)=O)[C@@H](C)O)C(C)C)[C@@H](C)O
B3: N^1-[(4S)-4-carboxy-4-[[(4S)-4-carboxy-4-(17-carboxyheptadecanoylamino)butanoyl]amino]butanoyl]-[Ala1,Ser2,His3,Leu4,Ser5,Ala7,Gln8,Ala10,Glu14,His17,Pro25,Pro2 … (peptide)
peptide: {C18 diacid-γGlu-γGlu}-ASHLSTAQTARLAEFLHHFGPILPPTDVGSETP-NH2
SMILES: CC[C@H](C)[C@H](NC(=O)[C@@H]1CCCN1C(=O)CNC(=O)[C@H](Cc1ccccc1)NC(=O)[C@H](Cc1c[nH]cn1)NC(=O)[C@H](Cc1c[nH]cn1)NC(=O)[C@H](CC(C)C)NC(=O)[C@H](Cc1ccccc1)NC(=O)[C@H](CCC(=O)O)NC(=O)[C@H](C)NC(=O)[C@H](CC(C)C)NC(=O)[C@H](CCCNC(=N)N)NC(=O)[C@H](C)NC(=O)[C@@H](NC(=O)[C@H](CCC(N)=O)NC(=O)[C@H](C)NC(=O)[C@@H](NC(=O)[C@H](CO)NC(=O)[C@H](CC(C)C)NC(=O)[C@H](Cc1c[nH]cn1)NC(=O)[C@H](CO)NC(=O)[C@H](C)NC(=O)CC[C@H](NC(=O)CC[C@H](NC(=O)CCCCCCCCCCCCCCCCC(=O)O)C(=O)O)C(=O)O)[C@@H](C)O)[C@@H](C)O)C(=O)N[C@@H](CC(C)C)C(=O)N1CCC[C@H]1C(=O)N1CCC[C@H]1C(=O)N[C@H](C(=O)N[C@@H](CC(=O)O)C(=O)N[C@H](C(=O)NCC(=O)N[C@@H](CO)C(=O)N[C@@H](CCC(=O)O)C(=O)N[C@H](C(=O)N1CCC[C@H]1C(N)=O)[C@@H](C)O)C(C)C)[C@@H](C)O
B4: N^1-acetyl,N{Epsilon-25}-[(4S)-4-carboxy-4-(17-carboxyheptadecanoylamino)butanoyl]-[Ala1,Ser2,Gln3,Leu4,Ser5,Ala7,Gln8,Glu14,His17,Asp21, Pro22,Lys25, … (peptide)
peptide: Ac-ASQLSTAQTQRLAEFLHHSSDPFGK([γGlu-C18 diacid])IPSSTDVGPDTP-NH2
SMILES: CC[C@H](C)[C@H](NC(=O)[C@H](CCCCNC(=O)CC[C@H](NC(=O)CCCCCCCCCCCCCCCCC(=O)O)C(=O)O)NC(=O)CNC(=O)[C@H](Cc1ccccc1)NC(=O)[C@@H]1CCCN1C(=O)[C@H](CC(=O)O)NC(=O)[C@H](CO)NC(=O)[C@H](CO)NC(=O)[C@H](Cc1c[nH]cn1)NC(=O)[C@H](Cc1c[nH]cn1)NC(=O)[C@H](CC(C)C)NC(=O)[C@H](Cc1ccccc1)NC(=O)[C@H](CCC(=O)O)NC(=O)[C@H](C)NC(=O)[C@H](CC(C)C)NC(=O)[C@H](CCCNC(=N)N)NC(=O)[C@H](CCC(N)=O)NC(=O)[C@@H](NC(=O)[C@H](CCC(N)=O)NC(=O)[C@H](C)NC(=O)[C@@H](NC(=O)[C@H](CO)NC(=O)[C@H](CC(C)C)NC(=O)[C@H](CCC(N)=O)NC(=O)[C@H](CO)NC(=O)[C@H](C)NC(C)=O)[C@@H](C)O)[C@@H](C)O)C(=O)N1CCC[C@H]1C(=O)N[C@@H](CO)C(=O)N[C@@H](CO)C(=O)N[C@H](C(=O)N[C@@H](CC(=O)O)C(=O)N[C@H](C(=O)NCC(=O)N1CCC[C@H]1C(=O)N[C@@H](CC(=O)O)C(=O)N[C@H](C(=O)N1CCC[C@H]1C(N)=O)[C@@H](C)O)C(C)C)[C@@H](C)O
B5: N^1-[(4S)-4-carboxy-4-(17-carboxyheptadecanoylamino)butanoyl]-[Ala1,Gly2,Glu3,Leu4,Ser5,Ala7,Gln8,Ala10,Glu14,His17,Pro25,Pro28,Pro29,Asp31,Glu35,Pro37],des-(19 … (peptide)
peptide: {C18 diacid-γGlu}-AGELSTAQTARLAEFLHHFGPILPPTDVGSETP-NH2
SMILES: CC[C@H](C)[C@H](NC(=O)[C@@H]1CCCN1C(=O)CNC(=O)[C@H](Cc1ccccc1)NC(=O)[C@H](Cc1c[nH]cn1)NC(=O)[C@H](Cc1c[nH]cn1)NC(=O)[C@H](CC(C)C)NC(=O)[C@H](Cc1ccccc1)NC(=O)[C@H](CCC(=O)O)NC(=O)[C@H](C)NC(=O)[C@H](CC(C)C)NC(=O)[C@H](CCCNC(=N)N)NC(=O)[C@H](C)NC(=O)[C@@H](NC(=O)[C@H](CCC(N)=O)NC(=O)[C@H](C)NC(=O)[C@@H](NC(=O)[C@H](CO)NC(=O)[C@H](CC(C)C)NC(=O)[C@H](CCC(=O)O)NC(=O)CNC(=O)[C@H](C)NC(=O)CC[C@H](NC(=O)CCCCCCCCCCCCCCCCC(=O)O)C(=O)O)[C@@H](C)O)[C@@H](C)O)C(=O)N[C@@H](CC(C)C)C(=O)N1CCC[C@H]1C(=O)N1CCC[C@H]1C(=O)N[C@H](C(=O)N[C@@H](CC(=O)O)C(=O)N[C@H](C(=O)NCC(=O)N[C@@H](CO)C(=O)N[C@@H](CCC(=O)O)C(=O)N[C@H](C(=O)N1CCC[C@H]1C(N)=O)[C@@H](C)O)C(C)C)[C@@H](C)O
B6: N^1-acetyl,N{Epsilon-25}-[(4S)-4-carboxy-4-(17-carboxyheptadecanoylamino)butanoyl]-[Ala1,Ser2,Gln3,Leu4,Ser5,Ala7,Gln8,Glu14, His17,Asp21,Lys25, Pro28, … (peptide)
peptide: Ac-ASQLSTAQTQRLAEFLHHSSDNFGK([γGlu-C18 diacid])ILPPTDVGSNTP-NH2
SMILES: CC[C@H](C)[C@H](NC(=O)[C@H](CCCCNC(=O)CC[C@H](NC(=O)CCCCCCCCCCCCCCCCC(=O)O)C(=O)O)NC(=O)CNC(=O)[C@H](Cc1ccccc1)NC(=O)[C@H](CC(N)=O)NC(=O)[C@H](CC(=O)O)NC(=O)[C@H](CO)NC(=O)[C@H](CO)NC(=O)[C@H](Cc1c[nH]cn1)NC(=O)[C@H](Cc1c[nH]cn1)NC(=O)[C@H](CC(C)C)NC(=O)[C@H](Cc1ccccc1)NC(=O)[C@H](CCC(=O)O)NC(=O)[C@H](C)NC(=O)[C@H](CC(C)C)NC(=O)[C@H](CCCNC(=N)N)NC(=O)[C@H](CCC(N)=O)NC(=O)[C@@H](NC(=O)[C@H](CCC(N)=O)NC(=O)[C@H](C)NC(=O)[C@@H](NC(=O)[C@H](CO)NC(=O)[C@H](CC(C)C)NC(=O)[C@H](CCC(N)=O)NC(=O)[C@H](CO)NC(=O)[C@H](C)NC(C)=O)[C@@H](C)O)[C@@H](C)O)C(=O)N[C@@H](CC(C)C)C(=O)N1CCC[C@H]1C(=O)N1CCC[C@H]1C(=O)N[C@H](C(=O)N[C@@H](CC(=O)O)C(=O)N[C@H](C(=O)NCC(=O)N[C@@H](CO)C(=O)N[C@@H](CC(N)=O)C(=O)N[C@H](C(=O)N1CCC[C@H]1C(N)=O)[C@@H](C)O)C(C)C)[C@@H](C)O

*1 amine or outer side, *2 acyl side, *3 side chain or, on linkers, in order; H or OH if unused. Side-chain parts run from the residue outwards. The star is where a group is joined. C20 diacid = O=C(O)CCCCCCCCCCCCCCCCCCC(=O)*; C18 diacid = O=C(O)CCCCCCCCCCCCCCCCC(=O)*; C16 diacid = O=C(O)CCCCCCCCCCCCCCC(=O)*; γGlu = O=C(O)[C@H](CCC(=O)[*:2])N[*:1]

In the first experiment the target is T1, human amylin-3(a) receptor. In words: cell-based or functional assay.
For B1, the “hAmyR3 potency, EC50 (pM); CRE-luciferase reporter in BHK cells” value (“hAmyR3 potency, EC50 (pM)” for short) is 1.62 pM.
On the same count and under the same terms, next, B2: 0.9 pM.
Same read-out and setting: the same measure for B3: 1.11 pM; for B4: 1.5 pM.
As for B5, the “hAmyR3 potency, EC50 (pM)” value amounted to 1.25 pM.
For the molecule B6, the “hAmyR3 potency, EC50 (pM)” value was 1.38 pM.

The next experiment concerns the target T2, human calcitonin receptor (a). Nature of the experiment: cell-based or functional assay.
Consider B1, for which the “hCalcR potency, EC50 (pM); CRE-luciferase reporter in BHK cells” value (from here on “hCalcR potency, EC50 (pM)”) is 1.5 pM.
In the case of B2, the “hCalcR potency, EC50 (pM)” value is 1.3 pM.
As to B3, the “hCalcR potency, EC50 (pM)” value was 1.15 pM.
Turning to B4, the “hCalcR potency, EC50 (pM)” value was 1 pM.
Regarding B5, the “hCalcR potency, EC50 (pM)” value was 1.03 pM.
As to B6, the “hCalcR potency, EC50 (pM)” value was 1.19 pM.
